{
  "source": "paper PMC4407285",
  "about": "(Cell Reports, 2015)",
  "key": {"[1]": {"target": "Candida glabrata Slx1 (Candida glabrata) (UniProt Q6FML9)", "test": "SEC-MALS"}, "[2]": {"target": "Candida glabrata Slx1 (Candida glabrata) (UniProt Q6FML9)", "test": "AUC"}, "Candida glabrata Slx1": {"target": "T1, Candida glabrata Slx1 (Candida glabrata, UniProt Q6FML9 1-312)", "T1 sequence": "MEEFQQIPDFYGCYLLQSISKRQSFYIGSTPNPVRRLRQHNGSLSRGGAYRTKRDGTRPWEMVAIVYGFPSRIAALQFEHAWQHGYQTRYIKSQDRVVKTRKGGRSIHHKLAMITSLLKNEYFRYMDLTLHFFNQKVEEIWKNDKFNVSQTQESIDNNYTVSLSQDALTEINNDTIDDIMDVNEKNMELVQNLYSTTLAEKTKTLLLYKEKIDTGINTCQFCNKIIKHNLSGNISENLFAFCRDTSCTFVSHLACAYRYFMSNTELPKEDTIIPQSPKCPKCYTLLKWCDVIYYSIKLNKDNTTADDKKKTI", "test": "co-purification"}},
  "data": [
    {"molecule": "Candida glabrata Slx4 conserved C-terminal domain (domain or fragment)", "values": [
      {"measurement": "stoichiometry N", "setting": "[1]", "value": 1},
      {"measurement": "stoichiometry N", "setting": "[2]", "value": 1}
    ]},
    {"molecule": "Candida glabrata Slx4 CCD3 (residues 647-726) (domain or fragment, UniProt Q6FJQ6 647-726, looked up) SNQKKVGVTSKSEVFEFLTHLVKQEPDLLTRIYCFQPITMNDLINKLRNKDSFVDLIDDGTIREWTDKLGICIRSNNLKD", "values": [
      {"measurement": "binding result", "setting": "Candida glabrata Slx1", "value": "binds"}
    ]}
  ]
}
